Results on 6 compounds are retold here after patent publication US20230031280A1, “GLP-2 FUSION POLYPEPTIDES AND USES FOR TREATING AND PREVENTING GASTROINTESTINAL CONDITIONS” (SHIRE-NPS PHARMACEUTICALS, INC., priority 2017, published 2023).

The nature of data set [1]: Rat pharmacokinetics, subcutaneous dosing. The class given is in vivo, Sprague-Dawley rats. Conditions: single dose 1 mg/ml. As to the method:
(§1) In the rat, four pharmacokinetic parameters were measured for Gattex® (a GLP-2 peptide having the A2G mutation): CL, Vc, Vt and Q. The same pharmacokinetic parameters were also measured for GLP-2 peptibodies A, B, E, J, K, L, M, O and P. The data is shown in Table 5. Male Sprague-Dawley rats (3 animals per group) were injected subcutaneously into the intra-scapular region of the animal. A singles dose of test article was injected at a dose level of 1 mg/ml. The test articles were formulated in PBS pH 7.4 at a concentration of Blood samples were taken 0.083, 0.167, 0.33, 0.5, 1, 2, 6, 24, 48, 72, 120, 168, 240, and 336 hours post dose. Blood samples were collected into heparinized tubes and centrifuged for 5 minutes at 2000 xg within 10 minutes of collection. 100 μL of plasma were transferred to a 1.51 ml Eppendorf tube containing 2 μL of 50 mM PMSF. After mixing the plasma samples were frozen at −80° C. until analysis. Meso Scale Discovery (MSD) ELISA was undertaken to assay for the concentration of the GLP-2 peptibodies.
A sandwich immunoassay was developed using either an anti-Human IgG1 Fc antibody or an anti-human albumin antibody for capture of the peptibody and a sulfotag labeled anti GLP-2 antibody for detection.

Data set [2] in a line: Rat pharmacokinetics, intravenous dosing. Conditions: single dose 1 mg/ml. The class given is in vivo, Sprague-Dawley rats. How it is done: as §1, with “4.” for “5.”, “intravenously either via a jugular vein or tail vein catheter.” for “subcutaneously into the intra-scapular region of the animal.”, “1.5” for “1.51”, “mixing,” for “mixing”, “analysis.” for “analysis. Meso Scale Discovery (MSD) ELISA was undertaken to assay for the concentration of the GLP-2 peptibodies.”

Data set [3] has as its target T1, hFcRn (extracellular domain of the FcRN) (Homo sapiens, UniProt P55899).
T1 construct: made in house
In words: FcRn binding by surface plasmon resonance (Biacore). Conditions: for pKd: pH 5.5. The source says: Binding to the Fc neonatal receptor (FcRN) allows for recycling of the molecules and leads to an extended in vivo serum half-life of the Fc fusion proteins. Recycling occurs as the molecules are passively taken into the cells and the pH of the endosomes is lower. That leads to binding of the Fc portion of the molecule to the FcRN. When the FcRN recycles back to the surface of the cell, the pH is then neutral and the protein is released back into the serum.
Binding to the extracellular domain of the FcRN was measured by surface plasmon resonance (SPR) using a Biacore system. Direct immobilization with FcRn was achieved via amine coupling of a CM5 chip with FcRn under the following conditions: • i) hFcRn (expressed and purified in house) is diluted in Acetate buffer pH 5.0 to 5 μg/mL. • ii) Immobilize 5 μg/mL of FcRn with target of 500 RU on CM5 chip in PBS pH 7.0 • iii) Final response 454 RU • iv) Running buffer: PBS-P+, pHed to 5.5
The kinetic binding study was done using the following protocol. Samples were diluted in PBS-P+ to 50, 25, 12.5, 6.25, 3.125, 1.56, 0.78, 0.39, 0 nM. The parameters were set as follows: • i) Association and Dissociation 300 s at Flow rate 30 μL/min • ii) Regeneration with 25 mM Tris, 150 mM NaCl pH 8.0 40 s at 60 μL/min
A measurement of the binding of the GLP-2 peptibodies to the Fc neonatal receptor (FcRN) was undertaken at pH 5.5 and pH 7.4.

The nature of data set [4]: NanoDSF melting temperature / thermal stability. The class given is physicochemical. Conditions: for NanoDSF melting temperature 1: first transition; for NanoDSF melting temperature 2: second transition. As to the method: Each of the GLP-2 peptibodies was tested by determining melting temperature with nanodifferential scanning fluorimetry (NanoDSF). NanoDSF is a measurement of protein stability over a range of temperatures, with a temperature ramp employed. The stability of tryptophan is measured by fluorescence, as reflected in a ratio of fluorescence at 350 nm to fluorescence at 330 nm. From the assay, one or more melting temperatures are determined. Because a protein in a certain state is understood to have a melting temperature, the number of melting temperatures observed reflects the number of different states.
(§2) Stability analysis was then performed using SEC-MALS and NanoDSF. For SEC-MALS, a Sepax Zenix C-150 column was used. The mobile phase buffer was 1× PBS with a final concentration of 400 mM NaCl. The flow rate was 0.8 mL per minute. 20 micrograms of total protein was injected. For NanoDSF, 10 microliters of sample was used, without normalization of the samples.
as §2
On the technique in general: DSF heats the sample and reads unfolding from a dye or from intrinsic fluorescence.

Data set [5] is described as follows: SEC-MALS (Sepax Zenix C-150) peak distribution. It counts as physicochemical. How it is done:
A SEC-MALS assay was performed to determine the primary state (main peak) and its molecular weight. […] The GLP-2 peptibody O (albumin fusion) eluted at a molecular weight indicative of a monomer.
as §2, §2
(In general: Size exclusion chromatography separates by hydrodynamic size, large species first.)

[6] abbreviates: Table 7 (Example 6), 0.5 mg/mL sample.
[7] abbreviates: Table 7 (Example 6), 1.5 mg/mL sample.
[8] abbreviates: Table 7 (Example 6), 5 mg/mL sample.
Setting [9] is: Table 7 (Example 6), 7.5 mg/mL sample.

pKd: −log10 of the molar value.

T1 sequence (P55899 24-297 limits assumed): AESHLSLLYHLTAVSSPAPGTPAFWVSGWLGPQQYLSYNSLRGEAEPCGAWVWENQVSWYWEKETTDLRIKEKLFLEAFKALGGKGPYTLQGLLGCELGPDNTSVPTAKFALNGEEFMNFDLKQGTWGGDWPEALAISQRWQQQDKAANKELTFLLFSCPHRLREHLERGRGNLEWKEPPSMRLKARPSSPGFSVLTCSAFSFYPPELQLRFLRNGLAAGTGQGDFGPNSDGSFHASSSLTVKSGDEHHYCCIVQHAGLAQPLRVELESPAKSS
T1 sequence (P61769 21-119 partner): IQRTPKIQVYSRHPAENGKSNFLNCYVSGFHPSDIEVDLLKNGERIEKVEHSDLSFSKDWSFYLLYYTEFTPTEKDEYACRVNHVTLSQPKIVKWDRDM

With `CC[C@H](C)[C@H](NC(=O)[C@H](Cc1ccccc1)NC(=O)[C@H](CC(=O)O)NC(=O)[C@H](CCCNC(=N)N)NC(=O)[C@H](C)NC(=O)[C@H](C)NC(=O)[C@H](CC(C)C)NC(=O)[C@H](CC(N)=O)NC(=O)[C@H](CC(=O)O)NC(=O)[C@H](CC(C)C)NC(=O)[C@@H](NC(=O)[C@@H](NC(=O)[C@H](CC(N)=O)NC(=O)[C@H](CCSC)NC(=O)[C@H](CCC(=O)O)NC(=O)[C@H](CC(=O)O)NC(=O)[C@H](CO)NC(=O)[C@H](Cc1ccccc1)NC(=O)[C@H](CO)NC(=O)CNC(=O)[C@H](CC(=O)O)NC(=O)CNC(=O)[C@@H](N)Cc1c[nH]cn1)[C@@H](C)O)[C@@H](C)CC)C(=O)N[C@@H](CC(N)=O)C(=O)N[C@@H](Cc1c[nH]c2ccccc12)C(=O)N[C@@H](CC(C)C)C(=O)N[C@H](C(=O)N[C@@H](CCC(N)=O)C(=O)N[C@H](C(=O)N[C@@H](CCCCN)C(=O)N[C@H](C(=O)N[C@H](C(=O)N[C@@H](CC(=O)O)C(=O)O)[C@@H](C)O)[C@@H](C)CC)[C@@H](C)O)[C@@H](C)CC` [Gattex], the CL in data set [1] was 51,649 mL/day/kg. Moreover, the Vc in data set [1] is listed as 1,794 mL/kg; in data set [2], 2,235 mL/kg. In addition, the clearance – broadly, the rate of elimination divided by the concentration – in data set [2] (male, Sprague-Dawley, plasma) was 1390 mL/h/kg.
In data set [1], “GLP-2 peptibody A: GLP-2[A2G] fused without linker to IgG1 Fc (LALA); SEQ ID NO: 13” came in with a CL of 70.7 mL/day/kg, a Q of 3.25 mL/h/kg, a Vc of 109 mL/kg and a Vt of 0.081 L/kg. The ka entry in data set [1] is reported as “A (0.45 ka/day,”. In addition, in data set [3], the negative-log Kd (pKd) (usually −log10 of the Kd, conventionally taken in molar units) was 8.86 and the “FcRN KD at pH 7.4” value is on record as “No binding in range tested”. In data set [4], the “NanoDSF melting temperature 1” value is 1 = 67.0 °C and the “NanoDSF melting temperature 2” value is 2 = 80 °C. In data set [2], this compound displayed a CL of 2.37 mL/h/kg, a Q of 2.42 mL/h/kg, a Vc of 43 mL/kg and a Vt of 0.079 L/kg.
In the case of “GLP-2 peptibody B264: GLP-2[A2G]-GGGGG linker-IgG1 Fc (LALA) without C-terminal lysine; SEQ ID NO: 1”, the “SEC LMW” value was found to be 17.2% LMW in data set [5] (Table 6, 0.5 mg/mL sample); 20.8% LMW in data set [5] (Table 6, 1.5 mg/mL sample); 20.1% LMW in data set [5] (Table 6, 5 mg/mL sample); 17.4% LMW in data set [5] (Table 6, 11 mg/mL sample); 19.7% LMW in data set [5] (setting [6]); 21.4% LMW in data set [5] (setting [7]). Also, the “SEC LMW” value is 20.8% LMW in data set [5] (setting [8]) and 19.9% LMW in data set [5] (setting [9]). For the same compound, the “SEC Main Peak” value in data set [5] (Table 6, 0.5 mg/mL sample) is listed as 82.8% Main Peak; in data set [5] (Table 6, 1.5 mg/mL sample) it was 77.2% Main Peak; in data set [5] (Table 6, 5 mg/mL sample) it was 77.9% Main Peak; in data set [5] (Table 6, 11 mg/mL sample) it was 80.5% Main Peak; in data set [5] (setting [6]), 77.4% Main Peak; in data set [5] (setting [7]), 78.6% Main Peak. Further, the “SEC Main Peak” value is 79.2% Main Peak in data set [5] (setting [8]) and 80% Main Peak in data set [5] (setting [9]). For the same compound, the “SEC HMW” value in data set [5] (Table 6, 1.5 mg/mL sample) came to 2.1% HMW; in data set [5] (Table 6, 5 mg/mL sample) it was 2% HMW; in data set [5] (Table 6, 11 mg/mL sample) it was 2.1% HMW; in data set [5] (setting [6]), 2.9% HMW. Moreover, the “Thermal Stability (NanoDSF) 1” value was 1 = 67.1 °C in data set [4] (Table 6, 0.5 mg/mL sample); 1 = 67.0 °C in data set [4] (Table 6, 1.5 mg/mL sample); 1 = 67.2 °C in data set [4] (Table 6, 5 mg/mL sample); 1 = 67.5 °C in data set [4] (Table 6, 11 mg/mL sample); 1 = 67.6 °C in data set [4] (setting [6]); 1 = 67.6 °C in data set [4] (setting [7]). Also, the “Thermal Stability (NanoDSF) 1” value in data set [4] (setting [8]) was 1 = 67.7 °C; in data set [4] (setting [9]) it was 1 = 67.8 °C. Besides, the “Thermal Stability (NanoDSF) 2” value was 2 = 75.2 °C in data set [4] (Table 6, 0.5 mg/mL sample); 2 = 74.8 °C in data set [4] (Table 6, 1.5 mg/mL sample); 2 = 75.0 °C in data set [4] (Table 6, 5 mg/mL sample); 2 = 74.7 °C in data set [4] (Table 6, 11 mg/mL sample); 2 = 80.2 °C in data set [4] (setting [6]); 2 = 80.2 °C in data set [4] (setting [7]). Also, the “Thermal Stability (NanoDSF) 2” value was 2 = 80.7 °C in data set [4] (setting [8]) and 2 = 80.4 °C in data set [4] (setting [9]).
In the case of “GLP-2 peptibody L: GLP-2[A2G]-GGGGGGG linker-IgG1 Fc (LALA); SEQ ID NO: 22”, in data set [1], the CL is 80.6 mL/day/kg, the Vc amounted to 127 mL/kg and the ka result is on record as “L (0.63 ka/day,”. The “SEC-MALS Zenix C-150 main peak” value in data set [5] is listed as 87.4% main peak, 148,000 g/mol. Further, in data set [3], the pKd is 8.76 and the “FcRN KD at pH 7.4” value is recorded as “No binding in range tested”. Further, in data set [4], the “NanoDSF melting temperature 1” value is 1 = 67.5 °C and the “NanoDSF melting temperature 2” value was 2 = 80 °C. Moreover, in data set [2], the CL came out at 2.8 mL/h/kg, the Q stood at 0.792 mL/h/kg, the Vc was 37.8 mL/kg and the Vt is 0.538 L/kg.
On to “GLP-2 peptibody M: GLP-2[A2G]-GGGGSGGGGS linker-IgG1 Fc (LALA); SEQ ID NO: 25”, for which, in data set [1], the CL is reported as 60.2 mL/day/kg, the Vc came to 91.5 mL/kg and the ka result is listed as “M (0.78 ka/day,”. In addition, the “SEC-MALS Zenix C-150 main peak” value in data set [5] is listed as 81.4% main peak, 148,500 g/mol. In addition, in data set [3], the negative logarithm of the Kd (pKd) was 8.74 and the “FcRN KD at pH 7.4” value was “No binding in range tested”. In data set [4], the “NanoDSF melting temperature 1” value is 1 = 67.3 °C and the “NanoDSF melting temperature 2” value is 2 = 79.9 °C. In data set [2], this compound registered a CL of 1.6 mL/h/kg, a Q of 7.62 mL/h/kg, a Vc of 12 mL/kg and a Vt of 0.0294 L/kg.
In data set [2], “GLP-2 peptibody P: fusion of GLP-2, a linker that is also a GLP-2 sequence, and human serum albumin 25-609; SEQ ID NO: 30” gave a CL of 7.08 mL/h/kg, a Q of 29.5 mL/h/kg, a Vc of 38.4 mL/kg and a Vt of 0.0439 L/kg.
